Results on 1 protein are retold here after paper PMC7126280 (Structure (London, England : 1993), 2006).

As usually defined, the stoichiometry N is a count of units in the complex or per binding partner.

This data set deals with the molecule itself. As to the kind of experiment: AUC + other: dynamic light scattering.

B1: SARS-CoV ORF-9b protein (natural protein)
chain: MDPNQTNVVPPALHLVDPQIQLTITRMEDAMGQGQNSADPKVYPIILRLGSQLSLSMARRNLDSLEARAFQSTPIVVQMTKLATTEELPDEFVVVTAK
Regarding B1, the “stoichiometry N” value was 2.
